Measured values reported in patent US20080220446A1, “Method for Detecting and/or Removing Protein and/or Peptide Comprising a Cross-Beta Structure From an Aqueous Solution Comprising a Protein” (priority 2005, published 2008).

Assays:
[1] = molecular target: T1, tPA (Homo sapiens, UniProt P00750); assay: tPA/plasminogen activation assay; format: biochemical; settings: % of standardized positive control; 1:10 diluted samples
Method: (§1) β2-GPI was reduced and alkylated as follows. Sixhundredforty μl of β2-GPI stock was mixed with 640 μl of 8 M Urea (cooled solution) in 0.1 M Tris pH-8.2. The solution was degassed with N2 gas for approximately 6 minutes. From a 1 M DTT stock 12.8 μl was added to the solution, mixed and incubated for 3 hours at room temperature. A 1 M Iodoacetamide (Sigma; I-6125) was prepared, of which 25.6 μl was added to the β2-GPI reaction mixture. The solution was subsequently dialysed against PBS. […] Signals obtained with alkyl-β2gpi are compared with those obtained with native β2gpi starting material and with positive control acid/heat denatured amyloid-like misfolded γ-globulins.
Exiqon Peptide Immobilizer plates were blocked for 1 hour with PBS, 1% Tween20 and rinsed twice with distilled water. The conversion of the chromogenic substrate S-2251 (Chromogenix, Italy) by plasmin was kinetically measured at 37° C. on a Spectramax340 microplate reader at a wavelength of 405 nm. […] Denatured γ-globulins (100 μg/ml) with amyloid-like structure was used as reference and positive control. Lyophilized γ-globulins (Sigma, Mo., USA) were dissolved in a 1(:)1 volume ratio of 1,1,1,3,3,3-hexafluoro-2-propanol and trifluoro-acetic acid and subsequently dried under air. Dried γ-globulins was dissolved in H2O to a final concentration of 1 mg/ml and kept at room temperature for at least three days and subsequently stored at −20° C.
(§2) Protein therapeutics were obtained from the local hospital pharmacy and analyzed within the expiry limits as stated by the manufacturers.

[2] = Thioflavin T fluorescence of protein solutions; format: physicochemical
Method: (§3) Fluorescence of ThT—protein/peptide adducts was measured as follows. […] Fluorescence was measured at 485 nm upon excitation at 435 nm. Background signals from buffer, buffer with ThT and protein/peptide solution without ThT were subtracted from corresponding measurements with protein solution incubated with ThT. Regularly, fluorescence of Aβ was used as a positive control, and fluorescence of FP10, a non-amyloid fibrin fragment^16, was used as a negative control. Fluorescence was measured in triplicate on a Hitachi F-4500 fluorescence spectrophotometer (Ltd., Tokyo, Japan).
(§4) Formulated protein therapeutics were obtained from the local hospital pharmacy and were used as supplied by the manufacturers. […] Lyophilized therapeutics were dissolved according to the manufacturers recommendations. GH, zinc-insulin, Cealb and gelatin were stored at −20, 4, room temperature, 37 and 65° C. Other protein therapeutics were only kept at 4° C., and assayed for the presence of cross-β structure at shown time points. Enhancement in fluorescence of ThT and Congo red was measured with all formulated protein therapeutics. For this purpose, proteins were diluted to the indicated concentrations. […] Zinc-insulin was diluted tenfold in the activation assay, GH was diluted to a final concentration of 500 μg ml^−1. Activation of factor XII and prekallikrein by the therapeutics was tested in the chromogenic factor XII assay (see above). […] After coating, plates were blocked with Blocking Reagent (Roche Diagnostics, Almere, The Netherlands).
ThT fluorescence of β2GPI was measured as follows. […] CL vesicles were prepared according to an established procedure. Briefly, CL was dried under a stream of nitrogen. The lipids were resuspended to a concentration of 10 mg ml^−1 in 25 mM Tris-HCl, pH 7.3, 150 mM NaCl by vigorous agitation, using a vortex. In the ThT fluorescence assay, fluorescence of β2GPI in buffer, of CL or DXS500k in buffer, of buffer and ThT alone, and of β2GPI-CL adducts and β2GPI-DXS500k adducts, with or without ThT, was recorded as described above (section ThT fluorescence). In addition, TEM images were recorded with CL, β2GPI from human plasma, with or without CL, and with recombinant β2GPI, as described^5.
(§5) To prepare structurally altered ovalbumin (OVA) with amyloid cross-β structures, purified OVA (Sigma, A-7641, lot 071k7094) was heated to 85° C. One mg ml^−1 OVA in 67 mM NaPi buffer pH 7.0, 100 mM NaCl, was heated for two cycles in PCR cups in a PTC-200 thermal cycler (MJ Research, Inc., Waltham, Mass., USA). In each cycle, OVA was heated from 30 to 85° C. at a rate of 5° C./min. Native OVA (nOVA) and heat-denatured OVA (dOVA) were tested in the ThT fluorescence assay and in the Plg-activation assay. In the fluorescence assay and in the Plg-activation assay, 25 and 100 μg ml^−1 nOVA and dOVA were tested, respectively. TEM images of nOVA and dOVA were taken to check for the presence of large aggregates.
MSA (#126674, Calbiochem) was dissolved in 8 M urea, 100 mM Tris-HCl pH 8.2, at 10 mg ml^−1 final concentration. Dithiothreitol (DTT) was added to a final concentration of 10 mM. Air was replaced by N2 and the solution was incubated for 2 h at room temperature. Then, the solution was transferred to ice and iodoacetamide was added from a 1 M stock to a final concentration of 20 mM. […] In the ThT-fluorescence assay 25 μg ml^−1 nMSA and alkyl-MSA were tested, and in the Plg-activation assay 100 μg ml^−1 was tested. The presence of aggregates or fibrils was analyzed using TEM. […]

[3] = molecular target: T1, tPA; assay: Plasminogen-activation assay (tPA activation, S-2251); format: biochemical; settings: for tPA activating potential: Example 4, native, heat-denatured or alkylated preparation as labelled
Method: Plasmin (Pls) activity was assayed as described^16. Peptides and proteins that were tested for their stimulatory ability were regularly used at 100 μg ml^−1. […] Chromogenic substrate S-2251 (Chromogenix, Instrumentation Laboratory SpA, Milano, Italy) was used to measure Pls activity. Conversion of zymogen factor XII (#233490, Calbiochem, EMD Biosciences, Inc., San Diego, Calif.) to proteolytically active factor XII (factor XIIa) was assayed by measurement of the conversion of chromogenic substrate Chromozym-PK (Roche Diagnostics, Almere, The Netherlands) by kallikrein. Chromozym-PK was used at a concentration of 0.3 mM. Factor XII, human plasma prekallikrein (#529583, Calbiochem) and human plasma cofactor high-molecular weight kininogen (#422686, Calbiochem) were used at concentrations of 1 μg ml^−1. […] Assays were performed using microtiter plates (Costar, Cambridge, Mass., USA). Peptides and proteins were tested for their ability to activate factor XII. 150 μg ml^−1 kaolin, an established activator of factor XII was used as positive control and solvent (H2O) as negative control. The conversion of Chromozym-PK was recorded kinetically at 37° C. for at least 60 minutes. Assays were done in duplicate.
as §4, §5
MSA (#126674, Calbiochem) was dissolved in 8 M urea, 100 mM Tris-HCl pH 8.2, at 10 mg ml^−1 final concentration. Dithiothreitol (DTT) was added to a final concentration of 10 mM. Air was replaced by N2 and the solution was incubated for 2 h at room temperature. Then, the solution was transferred to ice and iodoacetamide was added from a 1 M stock to a final concentration of 20 mM. […] Alkyl-MSA was dialyzed against H2O before use. […] In the ThT-fluorescence assay 25 μg ml^−1 nMSA and alkyl-MSA were tested, and in the Plg-activation assay 100 μg ml^−1 was tested. The presence of aggregates or fibrils was analyzed using TEM.
Lyophilized sterile glucagon was dissolved at 1 mg ml^−1 in H2O with 10 mM HCl. The solution was subsequently kept at 37° C. for 24 h, at 4° C. for 14 days and again at 37° C. for 9 days. […] TEM analysis was performed to assess the presence of large multimeric structures.

[4] = Stability testing of biopharmaceuticals under denaturing conditions; format: physicochemical; settings: after exposure to harsh denaturing conditions (low pH or heat)
Method: For this purpose, 5 mg/mL Glucagon (Glucagen; Novo Nordisk Farma B. V., Alphen aan de Rijn, The Netherlands) was incubated at 37° C. in 0.01 M HCl for 48 hours. One mg/mL Etanercept (Enbrel; Wyeth Pharmaceuticals B. V., Hoofddorp, The Netherlands) in 67 mM sodium phosphate buffer, 100 mM NaCl pH 7.0 was gradually heated from 30° C. to 85° C. over a period of 12 minutes and afterwards cooled to 4° C. for 5 minutes, this treatment was repeated 4 times. Abciximab (Reopro; Centocor B. V., Leiden, The Netherlands) and Infliximab (Remicade; Schering-Plough B. V., Utrecht, The Netherlands) were incubated at 65° C. for 16 and 72 hours, respectively.

[5] = ThT fluorescence enhancement by biopharmaceuticals; format: physicochemical; settings: +/− SD; five μL of protein therapeutic
Method: as §3, §1, §2
(§6) Fluorescence of Thioflavin T (ThT; Sigma T-3516, St. Louis, Mo., USA) and Congo red (CR; Aldrich Chemical Company Inc., Milwaukee, Wis., USA) was measured on a Hitachi F-4500 spectrophotometer at an excitation wavelength of 435 nm and emission wavelength of 485 nm for ThT and an excitation wavelength of 550 nm and emission wavelength of 595 nm for Congo red. […] Fluorescence was measured in triplicate. Background fluorescence of both protein in buffer and dye-solution were subtracted from the total fluorescence signal. Five μg/mL fibrillar amyloid-β(1-40) E22Q (Peptide Synthesis Facility of the Dutch Cancer Institute NKI, Amsterdam, The Netherlands) was used as a positive control in all fluorescence assays.

[6] = Congo red fluorescence enhancement by biopharmaceuticals; format: physicochemical; settings: +/− SD; five μL of protein therapeutic
Method: Background signals from buffer, buffer with Congo red and protein/peptide solution without Congo red were subtracted from corresponding measurements with protein solution incubated with Congo red. Fluorescence was measured in triplicate on a Hitachi F-4500 fluorescence spectrophotometer (Ltd., Tokyo, Japan).
as §2, §6

[7] = molecular target: T1, tPA; assay: tPA binding assay with immobilized biopharmaceuticals in an ELISA; settings: coated 1:10, one-site binding model
Method: Plates were washed twice with Tris buffered saline pH 7.2 containing 0.1% Tween20 (TBST) and blocked with PBS containing 1% Tween20 for 1 hour at room temperature. […] Plates were washed five times with TBST and incubated with peroxidase labeled anti-mouse immunoglobulins (RAMPO; DAKOCytomation, Glostrup, Denmark) diluted 1:3000 in PBST for 30 minutes at room temperature. Plates were washed five times with PBS 0.1% Tween20, and stained with 100 μL/well of tetramethyl-benzidine (TMB) substrate (Biosource Europe, Nivelles, Belgium). The reaction was terminated with 50 μL/well of 2 M H2SO4 and substrate conversion was read at 450 nm on a Spectramax340 microplate reader. Curves were fitted with a one-site binding model (GraphPad Prism version 4.02 for Windows, Graphpad Software, Calif., USA) from which Kd and Bmax were determined.
as §2

[8] = molecular target: T1, tPA; assay: tPA ELISA with coated protein therapeutics; format: binding; settings: ELISA, stored at the recommended temperature of 4° C.
Method: as §4

[9] = glucagon after heat-denaturation at 37° C. at low pH in HCl buffer

T1 sequence (P00750 36-562): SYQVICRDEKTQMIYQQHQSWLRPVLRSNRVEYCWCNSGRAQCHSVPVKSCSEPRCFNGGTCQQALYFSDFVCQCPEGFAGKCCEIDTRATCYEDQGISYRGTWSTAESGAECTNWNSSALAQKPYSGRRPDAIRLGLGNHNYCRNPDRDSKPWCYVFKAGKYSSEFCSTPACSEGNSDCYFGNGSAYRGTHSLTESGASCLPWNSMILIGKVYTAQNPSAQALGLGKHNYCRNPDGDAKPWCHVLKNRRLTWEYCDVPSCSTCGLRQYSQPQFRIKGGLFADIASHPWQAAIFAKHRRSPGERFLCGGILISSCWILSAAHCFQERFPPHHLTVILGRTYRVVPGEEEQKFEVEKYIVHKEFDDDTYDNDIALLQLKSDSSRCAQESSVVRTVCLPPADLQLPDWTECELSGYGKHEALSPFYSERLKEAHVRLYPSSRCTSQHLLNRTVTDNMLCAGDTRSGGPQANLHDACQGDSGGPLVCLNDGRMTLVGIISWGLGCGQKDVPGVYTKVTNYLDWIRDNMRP

Row | Substance | tPA activation Max. Activation [1] [%] | enhancement of ThT fluorescence ([2]; Example 4, native, heat-denatured or alkylated preparation as labelled) | tPA activating potential [3] | amyloid-like properties (ThT-fluorescence and tPA activation) [4] | Fluorescence ThT [5] | enhancement of ThT fluorescence [2, 9] | tPA activation [3, 9] | Fluorescence CR [6] | tPA activation ([3]; protein solutions stored at 4° C.) | tPA Binding Bmax [7] [OD450 nm] | binding of tPA [8] | presence of cross-β structure conformation ([2]; conclusion from ThT fluorescence, Plg-activation assay and TEM)
1 | Etanercept | 0 | some ThT fluorescence enhancement | some tPA activation | amyloid-like properties are adopted | 23 +/− 3 a.u. |  |  |  |  |  |  | 
2 | Glucagon: human glucagon (Glucagen, Novo Nordisk) | 11.25 |  | some tPA activating potential | amyloid-like properties are adopted | 48 +/− 1 a.u. | enhanced ThT fluorescence to a large extent | potent activator of tPA |  |  |  |  | 
3 | Infliximab: human-murine chimeric monoclonal antibody (Remicade-infliximab) | 0 |  |  | amyloid-like properties are adopted | 19 +/− 1 a.u. |  |  | 67 +/− 2 a.u. |  |  |  | 
4 | Insulin Aspart: rapid acting human insulin analogue (NovoRapid Flexpen, Novo Nordisk) | 70.93 |  |  |  | 172 +/− 3 a.u. |  |  | 81 +/− 2 a.u. | activated tPA to a lesser extent, but still significantly | 3.617 |  | 
5 | Insulin Zn Suspension: recombinant human Zn2+-chelated insulin (Monotard, Novo Nordisk) | 17.44 |  |  |  | 387 +/− 72 a.u. |  |  | 79 +/− 6 a.u. |  | 0.7558 | binding of tPA was established | 
6 | heat/acid-denatured glucagon: glucagon kept at 37° C. in 10 mM HCl |  |  |  |  |  |  |  |  |  |  |  | comprise the cross-β structure conformation
